Experimental data: patent US20060281899A1, “Mutants of biotin binding protein” (priority 2002, published 2006)

Legend:
[1] = Microparticle analysis, BF523-biotin binding of protein-coated particles before and after 95° C.; type: physicochemical; details: 30 minutes at 95° C., BF523-biotin added after treatment (iv)
Procedure: Before the analysis, 3.22 μm microparticles with COOH-group/0.852 nm2 (Bangs laboratories, Fishers, Ind., USA) were covalently coated with biotin-binding proteins. Microparticles (1*108 pcs) were washed twice with H20 by sequential centrifuging (5000 g; 3 min) and aspiration, and resuspended in 200 μl PB buffer (50 mM NaH2PO4-HCl, pH 3.0). A solution of biotin binding protein (50 μl, 1 mg/ml or 3 mg/ml, 50 mM Na-acetate pH 4.0) was added while vortexing. The suspension was incubated for 1 h (500 rpm; 23° C.). Particles were washed with PB and with MES buffer (50 mM, pH 5.5) and suspended in MES buffer (200 μl). […] After the last wash particles were suspended in 100 μl volume and concentration of particles was determined with Multisizer 3 Coulter Counter (Beckman Coulter, Fullerton, Calif., USA). […]
Microparticles (5*106 pcs) were suspended in 900 μl of assay buffer and aliquoted in […] PCR-tubes (i-v; 180 μl/aliquot). […] The samples were measured with ArcDia TPX PlateReader (ArcDia Ltd.) (Soini, E., Meltola, N. J., Soini, A. E., Soukka, J., Soini, J. T. & Hanninen, P. E. (2000) Biochem. Soc. Trans. 28, 70-74). […]
The fluorescence emission efficiencies of the BF523-biotin conjugate (200 nM) was determined before and after the incubation (30 min) at 95° C. […]

[2] = biotin cuvette; avidin values from literature; cited from earlier work
[3] = Non-reducing SDS-PAGE thermostability, oligomeric forms after boiling; type: physicochemical; details: boiled 20 minutes
Procedure: The heat stability of the AVRs was studied by using an SDS-PAGE-based method (Bayer, E. A., Ehrlich-Rogozinski, S. and Wilchek, M. (1996) Electrophoresis 17, 1319-1324). In this method, each protein sample was divided into two fractions one of which was kept biotin-free and the other was supplemented with an excess of biotin. The samples were then mixed with denaturing SDS-PAGE sample buffer (containing β-mercaptoethanol) and incubated at a given temperature for 20 minutes. After heat treatment, the samples were subjected to SDS-PAGE and visualised by staining with Coomassie brilliant blue. The relative proportions of tetrameric and monomeric forms of the AVR proteins (with avidin as the control) were detected. A similar assay, with β-mercaptoethanol omitted from the sample buffer, was performed to examine the presence of intersubunit disulfide-bridges. Sensitivity to proteinase K was studied both in the absence and in the presence of biotin as described (Laitinen, O. H., Airenne, K. J., Marttila, A. T., Kulik, T., Porkka, E., Bayer, E. A., Wilchek, M. and Kulomaa, M. S. (1999) FEBS Lett. 461, 52-8). The isoelectric point of each AVR was determined by isoelectric focusing as previously reported (Marttila, A. T., Airenne, K. J., Laitinen, O. H., Kulik, T., Bayer, E. A., Wilchek, M. and Kulomaa, M. S. (1998) FEBS Lett. 441, 313-317). […]

wt Avidin: Wild-type chicken avidin (SEQ ID NO 1), purified from chicken egg-white [reference compound]
original signal after heat treatment of coated particles [1]: 9% | Reversibility of biotin binding [2]: 1 ± 1% | Monomeric form, relative proportion [3]: 100 percentage
